{"source": "patent US20210032352A1", "about": "(ANTERA THERAPEUTICS, published 2021)", "key": {"FZD2 CRD, Fc-tagged": {"target": "T1, FZD2 CRD, Fc-tagged (human, UniProt Q14332 24-190)", "T1 construct": "domain: CRD; Bought; not shown: Fc tag of the purchased fusion", "experiment": "kinetic table (called BLI in paragraph 170)"}, "FZD7 CRD, Fc-tagged": {"target": "FZD7 CRD, Fc-tagged (human, UniProt O75084 33-185)", "experiment": "kinetic table (called BLI in paragraph 170)"}, "[1]": {"target": "T2, human LRP6 ECD, Fc-tagged (human, UniProt O75581 20-1370)", "T2 construct": "extracellular domain; Bought; also called LRP co-receptor; not shown: Fc tag of the purchased fusion", "T2 sequence (looked up)": "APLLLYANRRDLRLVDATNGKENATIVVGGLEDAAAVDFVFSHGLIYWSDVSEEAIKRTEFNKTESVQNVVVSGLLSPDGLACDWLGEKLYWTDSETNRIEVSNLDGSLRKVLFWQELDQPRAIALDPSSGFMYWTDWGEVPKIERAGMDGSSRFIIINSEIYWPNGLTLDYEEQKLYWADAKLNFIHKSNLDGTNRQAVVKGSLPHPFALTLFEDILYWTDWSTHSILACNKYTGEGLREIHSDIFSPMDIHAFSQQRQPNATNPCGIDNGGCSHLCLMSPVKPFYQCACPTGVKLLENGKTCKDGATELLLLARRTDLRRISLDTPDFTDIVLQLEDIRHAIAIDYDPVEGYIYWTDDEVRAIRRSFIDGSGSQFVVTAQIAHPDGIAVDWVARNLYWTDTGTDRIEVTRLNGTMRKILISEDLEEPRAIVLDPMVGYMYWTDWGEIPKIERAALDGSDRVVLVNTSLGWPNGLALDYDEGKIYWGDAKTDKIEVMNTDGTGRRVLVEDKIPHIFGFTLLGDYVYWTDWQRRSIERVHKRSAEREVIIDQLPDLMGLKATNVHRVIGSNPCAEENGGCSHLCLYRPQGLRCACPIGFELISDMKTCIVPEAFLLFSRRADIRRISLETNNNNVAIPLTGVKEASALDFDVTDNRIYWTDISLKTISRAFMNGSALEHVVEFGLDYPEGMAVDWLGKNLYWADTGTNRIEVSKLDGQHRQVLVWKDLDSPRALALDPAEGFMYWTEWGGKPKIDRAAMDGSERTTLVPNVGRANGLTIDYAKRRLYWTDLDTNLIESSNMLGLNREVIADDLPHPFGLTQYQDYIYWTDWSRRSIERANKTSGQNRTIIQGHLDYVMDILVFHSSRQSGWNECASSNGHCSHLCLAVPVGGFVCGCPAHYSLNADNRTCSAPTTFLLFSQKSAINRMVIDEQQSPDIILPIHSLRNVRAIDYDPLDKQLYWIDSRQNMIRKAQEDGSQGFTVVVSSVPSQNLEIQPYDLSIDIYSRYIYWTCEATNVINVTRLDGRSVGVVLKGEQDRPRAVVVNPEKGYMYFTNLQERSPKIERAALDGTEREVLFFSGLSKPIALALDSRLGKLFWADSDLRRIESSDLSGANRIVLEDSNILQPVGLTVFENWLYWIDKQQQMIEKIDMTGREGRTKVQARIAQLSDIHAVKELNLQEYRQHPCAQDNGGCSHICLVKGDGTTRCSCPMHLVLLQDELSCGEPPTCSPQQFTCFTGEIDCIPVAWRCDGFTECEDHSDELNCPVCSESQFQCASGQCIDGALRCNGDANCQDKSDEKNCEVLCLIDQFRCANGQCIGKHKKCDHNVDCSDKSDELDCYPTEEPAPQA", "experiment": "BLI kinetics, human LRP6 ECD"}, "FZD9 CRD, Fc-tagged": {"target": "T3, FZD9 CRD, Fc-tagged (human, UniProt O00144 23-187)", "T3 construct": "domain: CRD; Bought; not shown: Fc tag of the purchased fusion", "T3 sequence (looked up)": "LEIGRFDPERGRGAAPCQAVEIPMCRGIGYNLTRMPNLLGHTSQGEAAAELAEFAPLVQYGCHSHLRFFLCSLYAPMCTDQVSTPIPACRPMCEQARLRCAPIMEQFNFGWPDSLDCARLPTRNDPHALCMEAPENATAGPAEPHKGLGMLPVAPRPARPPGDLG", "experiment": "kinetic table (called BLI in paragraph 35)"}, "FZD10 CRD, Fc-tagged": {"target": "T4, FZD10 CRD, Fc-tagged (human, UniProt Q9ULW2 21-161)", "T4 construct": "domain: CRD; Bought; not shown: Fc tag of the purchased fusion", "T4 sequence (looked up)": "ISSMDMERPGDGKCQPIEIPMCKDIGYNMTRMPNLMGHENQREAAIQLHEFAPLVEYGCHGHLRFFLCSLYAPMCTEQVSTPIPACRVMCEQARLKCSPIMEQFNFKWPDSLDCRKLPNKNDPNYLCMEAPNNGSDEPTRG", "experiment": "kinetic table (called BLI in paragraph 35)"}, "FZD6 ECD, Fc-tagged": {"target": "T5, FZD6 ECD, Fc-tagged (human, UniProt O60353 19-132)", "T5 construct": "range 19-132; Made in Expi293 cells; single protomer species purified by size exclusion; not shown: human IgG1 Fc of the pFUSE-hIgG1-Fc2 vector (Invivogen)", "T5 sequence (looked up)": "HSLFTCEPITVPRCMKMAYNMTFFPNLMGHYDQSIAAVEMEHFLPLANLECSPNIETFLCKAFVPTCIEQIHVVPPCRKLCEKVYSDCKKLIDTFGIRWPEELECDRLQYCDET", "experiment": "kinetic table (called BLI in paragraph 35)"}}, "data": [{"binder": "F^P+P-L6^1+3 (5019-K/H-2539-2542) (bispecific antibody) chain 1: EVQLVESGGGLVQPGGSLRLSCAASGFNIGSSSIHWVRQAPGKGLEWVASIYSAFASTSYADSVKGRFTISADTSKNTAYLQMNSLRAEDTAVYYCARYHFPFGFALDYWGQGTLVTVSSGGGGSDIQMTQSPSSLSASVGDRVTITCRASQSVSSAVAWYQQKPGKAPKLLIYSASSLYSGVPSRFSGSRSGTDFTLTISSLQPEDFATYYCQQGVYLFTFGQGTKVEIKLEDKTHTKVEPKTSDKTHTCPPCPAPELLGGPSVFLFPPKPKDTLMISRTPEVTCVVVDVSHEDPEVKFNWYVDGVEVHNAKTKPREEQYNSTYRVVSVLTVLHQDWLNGKEYKCKVSNKALPAPIEKTISKAKGQPREPMVFDLPPSREEMTKNQVSLWCMVKGFYPSDIAVEWESNGQPENNYKTTPPVLDSDGSFFLYSKLTVDKSRWQQGNVFSCSVMHEALHNHYTQKSLSLSPGKSGSETPGTSESATPESGGGEVQLVESGGGLVQPGGSLRLSCAASGFNISYSSIHWVRQAPGKGLEWVAYISSYYGYTYYADSVKGRFTISADTSKNTAYLQMNSLRAEDTAVYYCARAHYFPWAGAMDYWGQGTLVTVSSGGGGSDIQMTQSPSSLSASVGDRVTITCRASQSVSSAVAWYQQKPGKAPKLLIYSASSLYSGVPSRFSGSRSGTDFTLTISSLQPEDFATYYCQQYYWPITFGQGTKVEIK chain 2: EVQLVESGGGLVQPGGSLRLSCAASGFNIGSSSIHWVRQAPGKGLEWVASIYSAFASTSYADSVKGRFTISADTSKNTAYLQMNSLRAEDTAVYYCARYHFPFGFALDYWGQGTLVTVSSGGGGSDIQMTQSPSSLSASVGDRVTITCRASQSVSSAVAWYQQKPGKAPKLLIYSASSLYSGVPSRFSGSRSGTDFTLTISSLQPEDFATYYCQQGVYLFTFGQGTKVEIKLEDKTHTKVEPKSSDKTHNCPPCPAPELLGGPSVFLFPPKPKDTLMISRTPEVTCVVVDVSHEDPEVKFNWYVDGVEVHNAKTKPREEQYNSTYRVVSVLTVLHQDWLNGKEYKCKVSNKALPAPIEKTISKAKGQPREPQVYTLPPIRELMTSNQVSLSCAVKGFYPSDIAVEWESNGQPENNYKTTPPVLDSDGSFFLVSKLTVDKSRWQQGNVFSCSVMHEALHNHYTQKSLSLSPGKSGSETPGTSESATPESGGGEVQLVESGGGLVQPGGSLRLSCAASGFNISSYYIHWVRQAPGKGLEWVASIYSSYGYTSYADSVKGRFTISADTSKNTAYLQMNSLRAEDTAVYYCARTVRGSKKPYFSGWAMDYWGQGTLVTVSSGGGGSDIQMTQSPSSLSASVGDRVTITCRASQSVSSAVAWYQQKPGKAPKLLIYSASSLYSGVPSRFSGSRSGTDFTLTISSLQPEDFATYYCQQYSWGPFTFGQGTKVEIK", "values": [{"measurement": "Kd", "setting": "FZD2 CRD, Fc-tagged", "value": 0.04, "unit": "nM"}, {"measurement": "Kd", "setting": "FZD7 CRD, Fc-tagged", "value": 0.06, "unit": "nM"}, {"measurement": "Kd", "setting": "[1]", "value": 12, "unit": "nM"}, {"measurement": "binding result", "setting": "FZD9 CRD, Fc-tagged", "value": "no binding"}, {"measurement": "binding result", "setting": "FZD10 CRD, Fc-tagged", "value": "no binding"}, {"measurement": "binding result", "setting": "FZD6 ECD, Fc-tagged", "value": "no binding"}]}]}
